Measurements from paper PMC13396810, “HELZ is a RNA-DNA helicase that resolves R loops to facilitate homologous recombination repair”.

Assays:
[1] = molecular target: HELZ WT (insect-purified) (human, UniProt P42694 1-1942); assay: EMSA; no ATP; 5 nM substrate; EMSA: 10 mM Tris-HCl pH 7.5, 60 mM KCl, 100 ng/ul BSA, 2 U/ul RNaseIN, 1 mM DTT, 30 min on ice, 5% native TAE gel 4 C; pull-down: 10 mM Tris-HCl pH 7.5, 100 mM; settings: protein: recombinant; label: Cy5 at 5' end of RNA; 30 bp hybrid S1[16-45] with S2[31-60]; 15 nt 5' RNA overhang; 30 nt 5' and 30 nt 3' DNA overhangs
[2] = molecular target: HELZ K674N (insect-purified) (human, UniProt P42694 1-1942, K674N); assay: EMSA; no ATP; 5 nM substrate; comparable to WT; EMSA: 10 mM Tris-HCl pH 7.5, 60 mM KCl, 100 ng/ul BSA, 2 U/ul RNaseIN, 1 mM DTT, 30 min on ice, 5% native TAE gel 4 C; pull-down: 10 mM Tris-HCl pH 7.5, 100 mM; settings: protein: recombinant; label: Cy5 at 5' end of RNA; 30 bp hybrid S1[16-45] with S2[31-60]; 15 nt 5' RNA overhang; 30 nt 5' and 30 nt 3' DNA overhangs
HELZ K674N (insect-purified), sequence (P42694 whole entry K674N): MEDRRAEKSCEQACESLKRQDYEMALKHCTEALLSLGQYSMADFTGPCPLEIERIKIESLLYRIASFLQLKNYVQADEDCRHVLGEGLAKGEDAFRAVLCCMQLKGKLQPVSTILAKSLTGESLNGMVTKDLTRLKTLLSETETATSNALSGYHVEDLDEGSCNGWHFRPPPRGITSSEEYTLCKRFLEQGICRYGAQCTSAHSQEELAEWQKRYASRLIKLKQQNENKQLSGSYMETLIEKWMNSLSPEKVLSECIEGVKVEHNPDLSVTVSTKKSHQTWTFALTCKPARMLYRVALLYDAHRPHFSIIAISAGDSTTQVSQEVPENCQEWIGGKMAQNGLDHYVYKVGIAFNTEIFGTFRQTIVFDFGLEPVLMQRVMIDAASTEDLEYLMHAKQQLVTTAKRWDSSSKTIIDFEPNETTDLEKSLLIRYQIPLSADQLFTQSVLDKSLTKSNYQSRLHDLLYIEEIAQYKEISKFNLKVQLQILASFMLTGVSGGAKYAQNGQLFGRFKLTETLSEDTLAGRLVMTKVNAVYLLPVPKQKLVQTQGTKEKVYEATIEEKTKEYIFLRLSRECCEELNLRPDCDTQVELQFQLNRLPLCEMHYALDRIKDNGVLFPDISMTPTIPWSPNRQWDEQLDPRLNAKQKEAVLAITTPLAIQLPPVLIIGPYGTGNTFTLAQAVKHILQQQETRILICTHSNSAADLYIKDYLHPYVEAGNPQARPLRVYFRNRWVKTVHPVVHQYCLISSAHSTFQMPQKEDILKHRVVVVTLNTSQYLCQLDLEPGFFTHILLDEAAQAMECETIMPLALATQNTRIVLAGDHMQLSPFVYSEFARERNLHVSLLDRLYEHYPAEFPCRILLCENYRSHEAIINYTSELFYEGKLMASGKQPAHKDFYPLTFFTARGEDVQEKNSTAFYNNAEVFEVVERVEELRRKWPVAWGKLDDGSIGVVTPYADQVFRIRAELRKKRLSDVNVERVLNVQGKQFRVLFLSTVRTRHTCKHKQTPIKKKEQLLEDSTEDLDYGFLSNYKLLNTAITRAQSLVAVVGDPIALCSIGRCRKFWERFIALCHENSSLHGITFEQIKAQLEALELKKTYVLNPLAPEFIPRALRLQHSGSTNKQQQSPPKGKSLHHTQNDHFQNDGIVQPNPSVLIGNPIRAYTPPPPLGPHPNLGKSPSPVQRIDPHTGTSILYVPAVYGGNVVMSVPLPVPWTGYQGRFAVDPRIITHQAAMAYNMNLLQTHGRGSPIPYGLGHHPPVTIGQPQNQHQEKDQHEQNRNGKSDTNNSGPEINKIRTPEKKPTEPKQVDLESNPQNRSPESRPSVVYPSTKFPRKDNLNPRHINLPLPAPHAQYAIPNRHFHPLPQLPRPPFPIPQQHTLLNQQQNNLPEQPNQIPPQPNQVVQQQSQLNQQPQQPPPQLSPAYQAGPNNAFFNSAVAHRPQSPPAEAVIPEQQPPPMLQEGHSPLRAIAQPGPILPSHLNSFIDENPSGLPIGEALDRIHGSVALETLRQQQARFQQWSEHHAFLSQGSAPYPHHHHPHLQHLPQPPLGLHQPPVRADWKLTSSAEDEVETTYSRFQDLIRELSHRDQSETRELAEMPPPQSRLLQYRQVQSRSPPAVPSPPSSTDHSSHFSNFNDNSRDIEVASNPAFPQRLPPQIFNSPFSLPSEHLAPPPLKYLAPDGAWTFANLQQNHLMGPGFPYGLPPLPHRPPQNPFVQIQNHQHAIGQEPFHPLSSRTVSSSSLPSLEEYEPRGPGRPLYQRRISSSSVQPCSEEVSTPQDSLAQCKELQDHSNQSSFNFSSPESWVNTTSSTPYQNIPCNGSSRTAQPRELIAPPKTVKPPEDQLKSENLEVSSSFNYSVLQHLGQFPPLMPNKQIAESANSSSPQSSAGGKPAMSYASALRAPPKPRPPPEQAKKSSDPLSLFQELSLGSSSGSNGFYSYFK

HELZ WT (insect-purified), sequence (P42694 whole entry): as the sequence (P42694 whole entry K674N) above, with N674K counted along it

B1: RNA/DNA hybrid with 5' ssRNA overhang (EMSA) (DNA:RNA)
RNA: UCGUAGCUCGGGAGUGCACCAGAUUCAGCAAUUAAGCUCUAAGCC
DNA: GTCACTTGATAAGAGGTCATTTGAATTCATGGCTTAGAGCTTAATTGCTGAATCTGGTGCTGGGATCCAACATGTTTTAAATATGCAATG
Question: What does the source list for B1?
Answer: binding result [1]: binds; binding result [2]: binds
